# Results taken from article PMC2664468.
# What was measured:
# [1] = biological target: endogenous vCD30 protein secreted during ECTV infection (Ectromelia virus (ECTV Naval.Cam)); assay: non-reducing SDS-PAGE and Western blot
# [2] = biological target: His-tagged ECTV vCD30 protein (vCD30His) (Ectromelia virus (ECTV)); assay: non-reducing SDS-PAGE; purified vCD30His from baculovirus; data not shown
Substance,stoichiometry N [1],stoichiometry N [2]
endogenous vCD30 protein secreted during ECTV infection (natural protein),3,
His-tagged ECTV vCD30 protein (vCD30His) (natural protein),,3
